In PMC6045628 (Scientific Reports, 2018):

Legend:
[1] = molecular target: Influenza A virus hemagglutinin fused to mEGFP (HA-wt-mEGFP) (Influenza A virus)
[2] = molecular target: the molecule itself; assay: Number&Brightness analysis (fluorescence fluctuation spectroscopy, molecular brightness); living U2OS cells expressing the mEGFP fusion; brightness normalised to 1xmEGFP and corrected for non-fluorescent mEGFP with pf = 0.72 from 2xmEGFP

Molecule	stoichiometry N [1]	stoichiometry N [2]
Influenza A virus hemagglutinin fused to mEGFP (HA-wt-mEGFP) (natural protein)	3.17	
E. coli glutamine synthetase fused to mEGFP (GlnA-mEGFP) (enzyme, UniProt P0A9C5 1-469, looked up, also called GlnA complex; copies: 12) MSAEHVLTMLNEHEVKFVDLRFTDTKGKEQHVTIPAHQVNAEFFEEGKMFDGSSIGGWKGINESDMVLMPDASTAVIDPFFADSTLIIRCDILEPGTLQGYDRDPRSIAKRAEDYLRSTGIADTVLFGPEPEFFLFDDIRFGSSISGSHVAIDDIEGAWNSSTQYEGGNKGHRPAVKGGYFPVPPVDSAQDIRSEMCLVMEQMGLVVEAHHHEVATAGQNEVATRFNTMTKKADEIQIYKYVVHNVAHRFGKTATFMPKPMFGDNGSGMHCHMSLSKNGVNLFAGDKYAGLSEQALYYIGGVIKHAKAINALANPTTNSYKRLVPGYEAPVMLAYSARNRSASIRIPVVSSPKARRIEVRFPDPAANPYLCFAALLMAGLDGIKNKIHPGEAMDKNLYDLPPEEAKEIPQVAGSLEEALNELDLDREFLKAGGVFTDEAIDAYIALRREEDDRVRMTPHPVEFELYYSV		11.9
